T1: human Claudin-6 (human, UniProt P56747 1-220)
T1 sequence: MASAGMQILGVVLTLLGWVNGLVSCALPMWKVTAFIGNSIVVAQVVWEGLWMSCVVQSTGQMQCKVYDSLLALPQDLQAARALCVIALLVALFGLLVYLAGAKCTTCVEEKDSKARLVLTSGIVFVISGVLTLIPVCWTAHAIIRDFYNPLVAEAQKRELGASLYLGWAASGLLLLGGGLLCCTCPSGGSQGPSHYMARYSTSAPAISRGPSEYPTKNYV

T2: human Claudin-9 (human, UniProt O95484 1-217)
T2 construct: On transfected HEK293 cells; also called CLDN9
T2 sequence: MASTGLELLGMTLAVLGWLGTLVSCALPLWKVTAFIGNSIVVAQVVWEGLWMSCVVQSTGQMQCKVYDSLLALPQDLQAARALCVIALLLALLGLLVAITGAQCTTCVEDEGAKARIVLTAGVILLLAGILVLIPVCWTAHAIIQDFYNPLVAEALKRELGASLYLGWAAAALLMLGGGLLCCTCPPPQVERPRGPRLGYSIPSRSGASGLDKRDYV

T3: human Claudin-4 (human, UniProt O14493 1-209)
T3 construct: On transfected CHO-K1 cells, or endogenous on MCF7 cells; also called CLDN4
T3 sequence: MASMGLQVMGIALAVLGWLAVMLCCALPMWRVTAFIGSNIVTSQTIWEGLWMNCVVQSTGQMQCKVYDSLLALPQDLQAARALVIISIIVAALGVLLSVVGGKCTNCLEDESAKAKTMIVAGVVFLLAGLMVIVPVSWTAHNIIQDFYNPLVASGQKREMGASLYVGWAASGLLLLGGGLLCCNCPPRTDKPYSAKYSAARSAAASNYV

T4: human Claudin-3 (human, UniProt O15551 1-220)
T4 construct: On transfected CHO-K1 cells, or endogenous on MCF7 cells; also called CLDN3
T4 sequence: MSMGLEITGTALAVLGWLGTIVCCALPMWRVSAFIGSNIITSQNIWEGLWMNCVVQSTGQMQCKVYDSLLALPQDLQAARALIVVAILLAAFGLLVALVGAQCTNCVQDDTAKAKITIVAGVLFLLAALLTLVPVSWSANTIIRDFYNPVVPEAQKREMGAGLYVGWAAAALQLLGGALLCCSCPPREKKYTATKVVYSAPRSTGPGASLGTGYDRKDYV


What was measured:
[1] = molecular target: T1, human Claudin-6; experiment: cell-based or functional assay
[2] = molecular target: T1, human Claudin-6; experiment: cell-based or functional assay; remark: listed apart in the source
[3] = molecular target: T1, human Claudin-6; experiment: FACS, NEC8 cells (endogenous CLDN6)
Method: (§1) Cells were fixed with 2% PFA (Alfa Aesar, catalog number: J61899) for 15 minutes at 4° C. and then washed. […] Flow cytometric analyses were performed on a flow cytometry instrument (Intellicyte, IQue plus, Sartorius).

[4] = molecular target: T1, human Claudin-6; experiment: FACS, OV90 cells (endogenous CLDN6)
Method: as §1

[5] = molecular target: T1, human Claudin-6; experiment: FACS, Claudin-6-CHO-K1 cells, 5 µg/ml
Method: (§2) Briefly, Claudin-6-CHO-K1 cells verse parental CHO-K1 cells were incubated with anti-CLDN6 antibodies for 2 hours at 4° C. Cells were fixed with 2% PFA (Alfa Aesar, cat #: J61899) for 15 minutes at 4° C. and then washed. […] Flow cytometric analyses were performed on a flow cytometry instrument (Intellicyte, IQue plus, Sartorius).

[6] = molecular target: T2, human Claudin-9; experiment: FACS, Claudin-9-HEK293 cells, 5 µg/ml
Method: (§3) The binding specificity of the disclosed anti-Claudin-6 antibodies were further assessed for binding to Claudin-9 by FACS. Briefly, Claudin-9-HEK293 cells (GenScript, Item #U3288DL180_4) were incubated with recombinant Claudin-6 antibodies for 2 hours at 4° C. Cells were fixed with 2% PFA (Alfa Aesar, cat #: J61899) for 15 minutes at 4° C. and then washed. […] Flow cytometric analyses were performed on a flow cytometry instrument (Intellicyte, IQue plus, Sartorius).

[7] = molecular target: T1, human Claudin-6; experiment: FACS dose response, Claudin-6-CHO cells
Method: as §2

[8] = molecular target: T1, human Claudin-6; experiment: FACS dose response, Claudin-6-HEK293 cells
[9] = molecular target: T2, human Claudin-9; experiment: FACS dose response, Claudin-9-HEK293 cells
Method: as §3

[10] = molecular target: T3, human Claudin-4; experiment: FACS on Claudin-4-CHO-K1 cells, MFI
Method: as §2

[11] = molecular target: T4, human Claudin-3; experiment: FACS on Claudin-3-CHO-K1 cells, MFI relative to the isotype control
Method: as §2

[12] = molecular target: T3, human Claudin-4; experiment: FACS on Claudin-4-CHO-K1 cells, MFI relative to the isotype control
Method: as §2

[13] = molecular target: T4, human Claudin-3; experiment: FACS on MCF7 cells, which endogenously express Claudin-3 and Claudin-4, MFI
[14] = molecular target: T3, human Claudin-4; experiment: FACS on MCF7 cells, which endogenously express Claudin-3 and Claudin-4; MFI relative to the isotype control
[15] = molecular target: T4, human Claudin-3; experiment: as above
[16] = molecular target: T1, human Claudin-6; experiment: cell-based or functional assay; remark: listed apart in the source
[17] = molecular target: T1, human Claudin-6; experiment: cell-based or functional assay; remark: listed apart in the source
[18] = molecular target: T1, human Claudin-6; experiment: FACS, NEC8 cells (endogenous CLDN6); remark: listed apart in the source
Method: as §1

[19] = molecular target: T1, human Claudin-6; experiment: FACS, Claudin-6-HEK293 cells, 5 µg/ml
[20] = molecular target: T1, human Claudin-6; experiment: FACS dose response, Claudin-6-CHO-K1 cells
Method: (§4) The anti-CLDN6 antibodies were also evaluated for their binding affinity to Claudin-6 overexpressing cell lines by FACS.

[21] = molecular target: T1, human Claudin-6; experiment: FACS dose response, Claudin-6-HEK293 cells; remark: listed apart in the source
Method: as §4

[22] = molecular target: T1, human Claudin-6; experiment: FACS dose response, NEC8 cells (endogenous CLDN6)
Method: as §1, §4

[23] = molecular target: T4, human Claudin-3; experiment: FACS, Claudin-3-CHO-K1 cells, serial dilution, MFI
Method: as §2

[24] = molecular target: T3, human Claudin-4; experiment: FACS, Claudin-4-CHO-K1 cells, serial dilution, MFI
Method: as §2

[25] = molecular target: T4, human Claudin-3; experiment: FACS, Claudin-3-CHO-K1 cells, serial dilution, MFI; remark: listed apart in the source
Method: as §2

[26] = molecular target: T3, human Claudin-4; experiment: FACS, Claudin-4-CHO-K1 cells, serial dilution, MFI; remark: listed apart in the source
Method: as §2

[27] = molecular target: T1, human Claudin-6; experiment: FACS dose response, Claudin-6-HEK293 cells; remark: listed apart in the source
[28] = molecular target: T3, human Claudin-4; experiment: FACS on Claudin-4-CHO-K1 cells, MFI; remark: listed apart in the source
Method: as §2

[29] = molecular target: T1, human Claudin-6; experiment: FACS dose response, NEC8 cells (endogenous CLDN6); remark: listed apart in the source
[30] = molecular target: T1, human Claudin-6; experiment: FACS, NEC8 cells (endogenous CLDN6), recombinant antibody
[31] = molecular target: T3, human Claudin-4; experiment: FACS on Claudin-4-CHO-K1 cells, MFI relative to the isotype control; remark: listed apart in the source
Method: as §2

[32] = molecular target: T3, human Claudin-4; experiment: FACS on MCF7 cells, which endogenously express Claudin-3 and Claudin-4; MFI relative to the isotype control; remark: listed apart in the source
[33] = molecular target: T4, human Claudin-3; experiment: FACS, Claudin-3-CHO-K1 cells, serial dilution, MFI; remark: listed apart in the source
Method: as §2

Binder | fold MFI over isotype control [3] [fold] | fold MFI over isotype control [4] [fold] | fold MFI over isotype control [5] [fold] | fold MFI over isotype control [6] [fold] | EC50 [7] [nM] | EC50 [8] [nM] | EC50 [9] [nM] | ADCC reporter assay on NEC8 cells, EC50 [16] [nM] | fold MFI over isotype control [18] [fold] | fold MFI over isotype control [19] [fold] | EC50 [20] [nM] | EC50 [21] [nM] | EC50 [22] [nM] | EC50 [27] [nM] | EC50 [29] [nM] | endocytosis-mediated cytotoxicity on OV90 cells, EC50 [2] [nM] | endocytosis killing (anti-hFc Fab-MMAF, CellTiter-Glo, 72 h) on NEC8 cells, EC50 [17] [nM] | other results
NR.N6.Ab4 (antibody, V domains shown) VH: QVQLVESGGGVVQPGRSLRLSCAASGFIFSSYGMHWVRQAPGKGLEWVAVIWYDGSNKFYADSVKGRFTISRDNSRKTLYLQMNSLRAEDTAVYYCARDGRYFDWGGSYYYYYGMDVWGQGTTVTVSS VL: not shown | – | – | – | – | – | – | – | 9.83 | 19 | 23 | 4.79 | 15.7 | 8.34 | – | – | – | 0.41 | binding result [23]: no binding (tested: log 1.5 (about 33 nM)); binding result [24]: no binding (tested: log 1.5 (about 33 nM))
NR.N6.Ab1 (antibody, human IgG1, V domains shown, Human variable domains from Trianni mice; also called NR.NR6.Ab1) VH: QVQLVQSGAEVKKPGASVKVSCKASGNTFTSYDINWVRQATGQGLEWMGWMNPNSGNTGYAQKFQGRVTMTRNTSISTAYMELSSLRSEDTAVYYCVYYNYVWGSFRFDDWGQGTLVTVSS VL: DIQLTQSPSFLSASVGDRVTITCRASQGISSYLAWYQQKPGKAPKLLIYAASTLQSGVPSRFSGSGSGTEFTLAVSSLQPEDFATYYCQQLNSYPYTFGQGTKLEIK | 27 | 19 | 28 | 16 | 0.97 | 0.55 | 6.72 | 0.4 | – | – | – | – | – | 0.63 | 1.39 | 1.08 | 0.14 | endocytosis-mediated cytotoxicity (anti-hFc Fab-MMAF, CellTiter-Glo) on NEC8 cells, EC50 mean (St. Dev. 0.11) [1]: 0.2 nM; binding result [28]: no binding; fold MFI over isotype control [30]: 32 fold; fold MFI over isotype control [31]: 1.1 x; fold MFI over isotype control [32]: 0.9 x
NR.N6.Ab1 variant N73D (antibody, V domains shown, the LALA changes of the constant region are explained nowhere; also called NR.N6.Ab1N73D; NR.N6.Ab1 N73D) VH: QVQLVQSGAEVKKPGASVKVSCKASGNTFTSYDINWVRQATGQGLEWMGWMNPNSGNTGYAQKFQGRVTMTRDTSISTAYMELSSLRSEDTAVYYCVYYNYVWGSFRFDDWGQGTLVTVSS VL: DIQLTQSPSFLSASVGDRVTITCRASQGISSYLAWYQQKPGKAPKLLIYAASTLQSGVPSRFSGSGSGTEFTLAVSSLQPEDFATYYCQQLNSYPYTFGQGTKLEIK | – | – | – | – | – | – | – | – | – | – | – | – | – | 0.42 | 0.74 | – | – | –

Further lines, with some results ahead:

fold MFI over isotype control [3] [fold] | fold MFI over isotype control [4] [fold] | fold MFI over isotype control [5] [fold] | fold MFI over isotype control [6] [fold] | EC50 [7] [nM] | EC50 [8] [nM] | EC50 [9] [nM] | ADCC reporter assay on NEC8 cells, EC50 [16] [nM] | fold MFI over isotype control [18] [fold] | fold MFI over isotype control [19] [fold] | EC50 [20] [nM] | EC50 [21] [nM] | EC50 [22] [nM] | EC50 [27] [nM] | EC50 [29] [nM] | Binder | endocytosis-mediated cytotoxicity on OV90 cells, EC50 [2] [nM] | endocytosis killing (anti-hFc Fab-MMAF, CellTiter-Glo, 72 h) on NEC8 cells, EC50 [17] [nM] | other results
25 | 17 | 24 | 53 | 6.88 | 1 | 1.49 | – | – | – | – | – | – | – | – | NR.N6.Ab2 (antibody, V domains shown, hybridoma-purified antibody in the Claudin-3-CHO-K1, Claudin-4-CHO-K1 and MCF7 assays) VH: QVQLVESGGGVVQPGRSLRLSCTASGFTFSHYGMHWVRQAPGKGLEWVSFLWFDGSKDNYADSVKGRFTISRDNSKNMLYLRMDSLRAEDTAVYYCARNGGLTIFDYWGQGTLVTVSS VL: AIQLTQSPSSLSASVGDRVTITCRASQGINSWLAWYQQKPEKAPKSLIYAASSLQSGVPSRFSGSGSGTDFTLTISSLQPEDFATYYCQQYNFYPYTFGQGTKLEII | 2.32 | – | endocytosis-mediated cytotoxicity (anti-hFc Fab-MMAF, CellTiter-Glo) on NEC8 cells, EC50 mean (St. Dev. 0.07) [1]: 0.1 nM; binding result [10]: no binding; fold MFI over isotype control [11]: 0.8 x; fold MFI over isotype control [12]: 0.9 x; binding result [13]: no binding; fold MFI over isotype control [14]: 1.1 x; fold MFI over isotype control [15]: 1.1 x
– | – | – | – | – | – | – | 3.78 | 21 | 24 | 3.99 | 4.13 | 5.92 | – | – | NR.N6.Ab5 (antibody, V domains shown, LCDR 41, 45, 43); also called NR.4.N6.Ab5) VH: QVQLVESGGGAVQPGRSLRLSCAASGFIFSSYGMHWVRQAPGKGLEWVAIIWFDGRNKNYADSVKGRFTISRDNSKKTLYLEMSSLRAEDTAVYYCARDGRYFDWGGSYYYYYGMDVWGQGTTVTVSS VL: not shown | – | 0.26 | binding result [25]: no binding (tested: log 1.5 (about 33 nM)); binding result [26]: no binding (tested: log 1.5 (about 33 nM))
– | – | – | – | – | – | – | 6.43 | 20 | 31 | 4.69 | 5.17 | 3.27 | – | – | NR.N6.Ab3 (antibody, V domains shown) VH: QVQLVESGGGVVQPGRSLRLSCAASGFTFSGYGMHWVRQAPGKGLEWVAAIWYDGSNKYYADSVKGRFTISSDNSKNTLYLQMKSLRAEDTAVYYCAREWYSSGWSMYDVFDIWGQGTMVTVSS VL: QTVVTQEPSFSVSPGGTVTLTCGLSSGSVSTSYYPSWYQQTPGQAPRTLIYSTNTRSSGVPDRFSGSILGNKAALTITGAQADDESDYYCVLYMGSGIWVFGGGTKLTVL | – | 0.51 | binding result [33]: no binding (tested: log 1.5 (about 33 nM))
